± gives the standard deviation of the averaged measurements.
B1: library; a variant is named by its letters at N, in order (parent)
chain: GCUGUCACCGGUGUAUUACCCUAGUGGUCGACCGGUCUGAUGAGUCUNNNNNNAGACGAAACAGC

What was measured:
[1] = variants of: B1; assay: FACS-Seq fitted mean relative fluorescence mCherry/BFP without ligand (log10 relative fluorescence); ligand: hypoxanthine (xanthine aptamer); higher = higher reporter protein expression; settings: HEK293T, ligand present: no
Summary of the method: (§1)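 After lentiviral transduction, HEK293T library cells bearing an mCherry ribozyme-switch reporter and an EF1α-BFP marker were enriched. They were then held for 48 h with or without ligand and sorted by mCherry/BFP into 6 bins, and each bin's genomic DNA was PCR-amplified, barcoded and MiSeq-sequenced. Fluorescence is expressed as a normalized fitted mean: the normal mean of log10(mCherry/BFP) bin counts, scaled to five spiked-in control ribozymes.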

[2] = variants of: B1; assay: normalized RNA/DNA level with ligand (relative to sTRSVctl = 100) (log10 (% of sTRSVctl)); ligand: hypoxanthine (xanthine aptamer); higher = less ribozyme self-cleavage, higher mRNA level; settings: ligand concentration (+) RNA-Seq: 5 mM, HEK293T, reporter: mCherry (pCS4076), ligand present: yes
Summary of the method: (§2)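 Total RNA, extracted with EDTA 72 h after HEK293T cells were transfected with 4 µg per 6-well well of reporter-linked ribozyme switch library plasmids, was reverse-transcribed, amplified, barcoded and sequenced. Ligand, if used, was added 1 h before transfection. RNA level was derived from RNA reads divided by DNA reads and normalized to a spiked-in non-cleaving sequence or to the top sequences. This was multiplied by 100 and log10-transformed, with the top set of 25 sequences and a ≥100 DNA read minimum.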

[3] = variants of: B1; assay: normalized RNA/DNA level without ligand (relative to sTRSVctl = 100) (log10 (% of sTRSVctl)); ligand: hypoxanthine (xanthine aptamer); higher = less ribozyme self-cleavage, higher mRNA level; settings: HEK293T, reporter: mCherry (pCS4076), ligand present: no
Summary of the method: as §2

[4] = variants of: B1; assay: FACS-Seq fitted mean relative fluorescence mCherry/BFP with ligand (log10 relative fluorescence); ligand: hypoxanthine (xanthine aptamer); ligand concentration (+) FACS-Seq: 5 mM; higher = higher reporter protein expression; settings: HEK293T, ligand present: yes
Summary of the method: as §1

Variant	FACS-Seq fitted mean (log10) [1]	normalized RNA/DNA level with ligand (log10) [2]	normalized RNA/DNA level without ligand (log10) [3]	FACS-Seq fitted mean (log10) [4]
GCUGUCACCGGUGUAUUACCCUAGUGGUCGACCGGUCUGAUGAGUCUCGAUGGAGACGAAACAGC [CGAUGG]	0.217 ± 0.024	1.89 ± 0.029	1.42 ± 0.087	0.628 ± 0.045
GCUGUCACCGGUGUAUUACCCUAGUGGUCGACCGGUCUGAUGAGUCUAGAUGAAGACGAAACAGC [AGAUGA]	0.409 ± 0.022	1.93 ± 0.05	1.65 ± 0.034	0.591 ± 0.025
GCUGUCACCGGUGUAUUACCCUAGUGGUCGACCGGUCUGAUGAGUCUUGAUGAAGACGAAACAGC [UGAUGA]	0.599 ± 0.053	1.906 ± 0.0054	1.58 ± 0.035	0.575 ± 0.14
GCUGUCACCGGUGUAUUACCCUAGUGGUCGACCGGUCUGAUGAGUCUCGAUAGAGACGAAACAGC [CGAUAG]	0.613 ± 0.0027	1.86 ± 0.12	1.7 ± 0.063	0.639 ± 0.052
GCUGUCACCGGUGUAUUACCCUAGUGGUCGACCGGUCUGAUGAGUCUGGAUAGAGACGAAACAGC [GGAUAG]	0.188 ± 0.013	1.83 ± 0.028	1.39 ± 0.049	0.508 ± 0.041
GCUGUCACCGGUGUAUUACCCUAGUGGUCGACCGGUCUGAUGAGUCUUGAUCGAGACGAAACAGC [UGAUCG]	0.52543 ± 0.00029	1.93 ± 0.02	1.81 ± 0.025	0.589 ± 0.045
GCUGUCACCGGUGUAUUACCCUAGUGGUCGACCGGUCUGAUGAGUCUGGAUGAAGACGAAACAGC [GGAUGA]	0.427 ± 0.085	1.89 ± 0.035	1.618 ± 0.0099	0.633 ± 0.029
GCUGUCACCGGUGUAUUACCCUAGUGGUCGACCGGUCUGAUGAGUCUGGAUGCAGACGAAACAGC [GGAUGC]	-0.0215 ± 0.024	1.85 ± 0.066	1.47 ± 0.075	0.483 ± 0.029
GCUGUCACCGGUGUAUUACCCUAGUGGUCGACCGGUCUGAUGAGUCUGGAUGGAGACGAAACAGC [GGAUGG]	0.131 ± 0.02	1.85 ± 0.027	1.33 ± 0.034	0.472 ± 0.035
GCUGUCACCGGUGUAUUACCCUAGUGGUCGACCGGUCUGAUGAGUCUUGAUAUAGACGAAACAGC [UGAUAU]	0.0888 ± 0.12	1.96 ± 0.028	1.776 ± 0.016	0.0923 ± 0.28
GCUGUCACCGGUGUAUUACCCUAGUGGUCGACCGGUCUGAUGAGUCUGGAUCGAGACGAAACAGC [GGAUCG]	0.142 ± 0.037	1.95 ± 0.053	1.6404 ± 0.0014	0.517 ± 0.05

From the supplement of paper PMC6757056
